The record followed here is PMC10057929, “Improvement of Laccase Production by Thielavia terrestris Co3Bag1. Enhancing the Bio-Catalytic Performance of the Native Thermophilic TtLacA via Immobilization in Copper Alginate Gel Beads” (Journal of Fungi, 2023).

Substrate in the series: CCn1c(=NN=c2sc3cc(S(=O)(=O)O)ccc3n2CC)sc2cc(S(=O)(=O)O)ccc21
Nature of the series: purified protein. Type of series: biochemical, Thermothielavioides terrestris. Conditions: free enzyme, pH 3.0 glycine-HCl, 65 °C, 5 min, 0.05 to 5 mM ABTS.

B1: TtLacA (Thermothielavioides terrestris NRRL 8126) (protein)
chain: MGLLRGLLESVSETLELFYTATATLTQESTNGLSLLGTLLARVLPLFLTNNPLPDGFPWGSLSDTNTNPYVDYPRTGVVRYYDFTVSRGIIAPDGYQRDVLLVNGAYPGPLIEANWGDTIVVTVHNNISNPEDGTTIHWHGFLQRETPWADGAPGISQCPIPPGSSYTYEFVASLFGTSWYHAHYSAQYAGGVVGPIVVYGPTHAKYDVDLGPIMLSDWYHREYFDIVKELLSPNASPRVLSDNNLIDGKMNFDCSTVAPGDNTPCTDRAGISKFKFQTGKTHRLRLINSGADGVQRFSIDQHTLTVIAEDFVPVKPYNTTVVTLGVGQRTDVLVTANAGPPDSLFWMRSNLTTCSPARQPNALAAVYYDKADTSATPSSRPWDVPDPGTCANDPLDISEPLYPIPLPKPAITQTMDIELFKNASNVTLWKFNGVSMRTDYNSPVILLANQGNFSYPPEWNVVNYQQTTAIRIIINNKGPGPHPMHLHGHNFYILHEGPGEWDGTIVRPSNPMRRDVELVRGNGHLVIQFDGAPGVWAFHCHIAWHSSGGFLASLLVQPHKVQQMHLPGDVEQNCRAWDLWTKHNVVDQIDSGT
notes: native secreted enzyme purified from culture supernatant, free (not immobilised); 70 kDa by SDS-PAGE; MS/MS peptides QPNALAAVYYDK, YDVDLGPIMLSDWYHR, VLSDNNLIDGK, LINSGADGVQR
By Km is commonly meant the concentration of substrate that gives half-maximal velocity. The kcat is the maximal rate divided by the concentration of active sites. Regarding B1, the Km is 260 µM and the kcat stood at 13.73 s⁻¹.
